Experimental data as given in the PETadex activity labels (doi:10.1021/acs.est.4c01495).

What was measured:
p-NP-C4 = details: 35 °C
gfPET = experiment: Proxy for plastic degradation [Released monomer concentration (HPLC/LC-MS) (TPA+MHET)]; details: pH 8

B1: unnamed (protein)
chain: MNFPRASRLMQAAVLGGLMAVSAAATAQTNPYARGPNPTAASLEASAGPFTVRSFTVSRPSGYGAGTVYYPTNAGGTVGAIAIVPGYTARQSSIKWWGPRLASHGFVVITIDTNSTLDQPSSRSSQQMAALRQVASLNGTSSSPIYGKVDTARMGVMGWSMGGGGSLISAANNPSLKAAAPQAPWDSSTNFSSVTVPTLIFACENDSIAPVNSSALPIYDSMSRNAKQFLEINGGSHSCANSGNSNQALIGKKGVAWMKRFMDNDTRYSTFACENPNSTRVSDFRTANCS
B1 showed a Km (p-NP-C4; part of the chain shown) of 240 µM, a kcat (p-NP-C4; part of the chain shown) of 15.1 s⁻¹ and a kcat/Km (p-NP-C4; part of the chain shown) of 62900 M⁻¹ s⁻¹. The “Proxy for plastic degradation” value (gfPET; 35 °C, 1 h, part of the chain shown) was 17 µM, the “Proxy for plastic degradation” value (gfPET; 35 °C, 3 h, part of the chain shown) was 38 µM and the “Proxy for plastic degradation” value (gfPET; 35 °C, 5 h, part of the chain shown) was 45 µM. For the same protein, the “Proxy for plastic degradation” value (gfPET; 35 °C, 7 h, part of the chain shown) was 55 µM, the “Proxy for plastic degradation” value (gfPET; 35 °C, 10 h, part of the chain shown) was 77 µM and the “Proxy for plastic degradation” value (gfPET; 50 °C, 1 h, part of the chain shown) was 10 µM. The “Proxy for plastic degradation” value (gfPET; 50 °C, 3 h, part of the chain shown) was 25 µM, the “Proxy for plastic degradation” value (gfPET; 50 °C, 5 h, part of the chain shown) was 50 µM and the “Proxy for plastic degradation” value (gfPET; 50 °C, 7 h, part of the chain shown) was 70 µM. For the same protein, the “Proxy for plastic degradation” value (gfPET; 50 °C, 10 h, part of the chain shown) was 209 µM.

B2: unnamed (protein)
chain: MDGVLWRVRTAALMAALLALAAWALVWASPSVEAQSNPYQRGPNPTRSALTADGPFSVATYTVSRLSVSGFGGGVIYYPTGTSLTFGGIAMSPGYTADASSLAWLGRRLASHGFVVLVINTNSRFDYPDSRASQLSAALNYLRTSSPSAVRARLDANRLAVAGHSMGGGGTLRIAEQNPSLKAAVPLTPWHTDKTFNTSVPVLIVGAEADTVAPVSQHAIPFYQNLPSTTPKVYVELDNASHFAPNSNNAAISVYTISWMKLWVDNDTRYRQFLCNVNDPALSDFRTNNRHCQ
B2 gave a Km (p-NP-C4) of 300 µM, a kcat (p-NP-C4) of 21.6 s⁻¹ and a kcat/Km (p-NP-C4) of 71900 M⁻¹ s⁻¹. For the same protein, the “Proxy for plastic degradation” value (gfPET; 35 °C, 1 h) was 5 µM, the “Proxy for plastic degradation” value (gfPET; 35 °C, 3 h) was 14 µM and the “Proxy for plastic degradation” value (gfPET; 35 °C, 5 h) was 39 µM. For the same protein, the “Proxy for plastic degradation” value (gfPET; 35 °C, 7 h) was 95 µM, the “Proxy for plastic degradation” value (gfPET; 35 °C, 10 h) was 182 µM and the “Proxy for plastic degradation” value (gfPET; 50 °C, 1 h) was 480 µM. For the same protein, the “Proxy for plastic degradation” value (gfPET; 50 °C, 3 h) was 1470 µM, the “Proxy for plastic degradation” value (gfPET; 50 °C, 5 h) was 2380 µM and the “Proxy for plastic degradation” value (gfPET; 50 °C, 7 h) was 3250 µM. For the same protein, the “Proxy for plastic degradation” value (gfPET; 50 °C, 10 h) was 4130 µM.
